Test results from patent US5494912A, “9-purinyl phosphonic acid derivitives for treating gout” (Merrell Pharmaceuticals Inc., priority 1995, dated 1996).

Legend:
[1] = biological target: T1, purine nucleoside phosphorylase (PNP) (Bos taurus, UniProt P55859); assay: PNP inhibition, coupled xanthine oxidase method of Kalckar, bovine spleen PNP; assay type: biochemical
T1 construct: Spleen; from tissue; host or cells: spleen
T1 sequence (P55859 1-289): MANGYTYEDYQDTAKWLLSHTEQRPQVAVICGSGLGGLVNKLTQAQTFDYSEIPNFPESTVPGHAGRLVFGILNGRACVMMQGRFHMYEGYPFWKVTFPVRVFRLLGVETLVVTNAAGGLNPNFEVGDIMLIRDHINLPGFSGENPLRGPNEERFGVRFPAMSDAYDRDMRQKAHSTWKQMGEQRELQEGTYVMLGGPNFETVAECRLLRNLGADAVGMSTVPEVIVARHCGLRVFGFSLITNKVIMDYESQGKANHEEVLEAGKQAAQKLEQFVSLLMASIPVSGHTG

[2] = biological target: T2, purine nucleoside phosphorylase (PNP) (Homo sapiens, UniProt P00491); assay: PNP inhibition, coupled xanthine oxidase method of Kalckar, human erythrocyte PNP; assay type: biochemical; conditions: 1 mM inorganic phosphate, 0.1M HEPES pH 7.4, inosine 0.05-0.15 mM as substrate; read-out: Ki (apparent dissociation constant), Human Erythrocytes PNP
T2 construct: Erythrocytes; from tissue; host or cells: erythrocytes
T2 sequence (P00491 1-289): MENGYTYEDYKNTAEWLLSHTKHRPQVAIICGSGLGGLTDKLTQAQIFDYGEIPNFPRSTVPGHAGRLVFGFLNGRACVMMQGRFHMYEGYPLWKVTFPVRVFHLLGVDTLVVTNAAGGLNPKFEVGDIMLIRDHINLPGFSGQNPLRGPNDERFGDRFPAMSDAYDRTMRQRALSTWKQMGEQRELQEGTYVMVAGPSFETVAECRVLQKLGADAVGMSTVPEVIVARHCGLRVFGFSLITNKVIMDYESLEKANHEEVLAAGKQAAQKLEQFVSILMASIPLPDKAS

[3] = substrate: OC[C@H]1O[C@@H](n2cnc3c(O)ncnc32)[C@H](O)[C@@H]1O; assay: PNP inhibition, coupled xanthine oxidase method of Kalckar, bovine spleen PNP; assay type: biochemical; conditions: other: substrate KM for comparison with Ki; pH 7.4
purified protein = substrate: OC[C@H]1O[C@@H](n2cnc3c(O)ncnc32)[C@H](O)[C@@H]1O; assay: purified protein; conditions: other: substrate KM for comparison with Ki; pH 7.4
[4] = substrate: OC[C@H]1O[C@@H](n2cnc3c(O)ncnc32)[C@H](O)[C@@H]1O; assay: PNP inhibition, coupled xanthine oxidase method of Kalckar, human erythrocyte PNP; assay type: biochemical; conditions: other: substrate KM for comparison with Ki; pH 7.4
[5] = substrate: OC[C@H]1O[C@@H](n2cnc3c(O)ncnc32)[C@H](O)[C@@H]1O; assay: PNP inhibition, coupled xanthine oxidase method of Kalckar, E. coli PNP; assay type: biochemical; conditions: other: substrate KM for comparison with Ki; pH 7.4

Q: For `Nc1nc2c(ncn2Cc2ccccc2OCCC(F)(F)P(=O)(O)O)c(=O)[nH]1`, which Ki [1] is on record?
A: 250 nM

Q: With `Nc1nc2c(ncn2Cc2ccccc2OCP(=O)(O)O)c(=O)[nH]1` [[2-[(2-amino-1,6,dihydro-6-oxo-9H-purin-9yl)methyl]phenoxy]methylphosphonic acid] as the molecule, how does the Ki [1] read?
A: 7.5 nM

Q: How did the Ki [2] turn out when `Nc1nc2c(ncn2Cc2ccccc2C(F)C(F)(F)P(=O)(O)O)c(=O)[nH]1` (stereo not shown) [[2-[2-[(2-amino-1,6-dihydro-6-oxo-9H-purin-9-yl)methyl]phenyl]-1,1,2-trifluoroethyl]phosphonic acid] was run?
A: 1.3 nM

B1: purine nucleoside phosphorylase (PNP) (Bos taurus) (protein)
chain: MANGYTYEDYQDTAKWLLSHTEQRPQVAVICGSGLGGLVNKLTQAQTFDYSEIPNFPESTVPGHAGRLVFGILNGRACVMMQGRFHMYEGYPFWKVTFPVRVFRLLGVETLVVTNAAGGLNPNFEVGDIMLIRDHINLPGFSGENPLRGPNEERFGVRFPAMSDAYDRDMRQKAHSTWKQMGEQRELQEGTYVMLGGPNFETVAECRLLRNLGADAVGMSTVPEVIVARHCGLRVFGFSLITNKVIMDYESQGKANHEEVLEAGKQAAQKLEQFVSLLMASIPVSGHTG
notes: Spleen; from tissue; host or cells: spleen
Q: How did the Km [3] turn out when B1 was run?
A: 30 µM

B2: purine nucleoside phosphorylase (PNP) (Rattus norvegicus) (protein)
chain: MENEFTYEDYQRTAEWLRSHTKHRPQVAVICGSGLGGLTAKLTQPQAFDYNEIPNFPQSTVQGHAGRLVFGFLNGRSCVMMQGRFHMYEGYSLSKVTFPVRVFHLLGVDTLVVTNAAGGLNPKFEVGDIMLIRDHINLPGFCGQNPLRGPNDERFGVRFPAMSDAYDRDMRQKAFNAWKQMGEQRELQEGTYIMSAGPTFETVAESCLLRMLGADAVGMSTVPEVIVARHCGLRVFGFSLITNKVVMDYNNLEKASHQEVLEAGKAAAQKLEQFVSILMESIPPRERAN
Q: For B2, which Km (purified protein) is on record?
A: 150 µM

B3: purine nucleoside phosphorylase (PNP) (Homo sapiens) (protein)
chain: MENGYTYEDYKNTAEWLLSHTKHRPQVAIICGSGLGGLTDKLTQAQIFDYGEIPNFPRSTVPGHAGRLVFGFLNGRACVMMQGRFHMYEGYPLWKVTFPVRVFHLLGVDTLVVTNAAGGLNPKFEVGDIMLIRDHINLPGFSGQNPLRGPNDERFGDRFPAMSDAYDRTMRQRALSTWKQMGEQRELQEGTYVMVAGPSFETVAECRVLQKLGADAVGMSTVPEVIVARHCGLRVFGFSLITNKVIMDYESLEKANHEEVLAAGKQAAQKLEQFVSILMASIPLPDKAS
notes: Erythrocytes; from tissue; host or cells: erythrocytes
Q: With B3 as the molecule, how does the Km [4] read?
A: 150 µM

B4: purine nucleoside phosphorylase (PNP) (Escherichia coli K-12) (protein)
chain: ATPHINAEMGDFADVVLMPGDPLRAKYIAETFLEDAREVNNVRGMLGFTGTYKGRKISVMGHGMGIPSCSIYTKELITDFGVKKIIRVGSCGAVLPHVKLRDVVIGMGACTDSKVNRIRFKDHDFAAIADFDMVRNAVDAAKALGIDARVGNLFSADLFYSPDGEMFDVMEKYGILGVEMEAAGIYGVAAEFGAKALTICTVSDHIRTHEQTTAAERQTTFNDMIKIALESVLLGDKE
Q: Which Km [5] does the source give for B4 here?
A: 80 µM
